B1: COUP transcription factor 1, residues 83 to 159; numbered along this chain, P10589 (parent)
chain: HIECVVCGDKSSGKHYGQFTCEGCKSFFKRSVRRNLTYTCRANRNCPIDQHHRNQCQYCRLKKCLKVGMRREAVQRG

± gives the uncertainty stated by the source.

The variants in this series derive from B1. Kind of series: abundance fitness (aPCA) (normalised: wild type 0, dead -1); higher = more abundant; growth selection in yeast, the domain comes from the species named. The note with it: Homo sapiens.
For the variant HIECVVCGDKSSGKHYGQFTCEGCKSFFKRSVRRNLTYTCRANRNCPIDQHHRNQCQYCRLKKCLKVSMRREAVQRG [G68S], the abundance fitness is -0.593 ± 0.068. Next, HIECVVCGDKSSGKHYGQFTCEGCKSFFKRSVRRNLTYTCRANRNCPIDQHHRNQCQYCRLKKCLKVAMRREAVQRG [G68A]: -0.729 ± 0.069; HIECVVCGDKSSGKHYGQFTCEGCKSFFKRSVRRNLTYTCRANRNCPIDQHHRNQCQYCRLKKCLKVVMRREAVQRG [G68V]: -0.671 ± 0.059. Consider HIECVVCGDKSSGKHYGQFTCEGCKSFFKRSVRRNLTYTCRANRNCPIDQHHRNQCQYCRLKKCLKVRMRREAVQRG [G68R], for which the abundance fitness was -0.65 ± 0.049. Next, HIECVVCGDKSSGKHYGQFTCEGCKSFFKRSVRRNLTYTCRANRNCPIDQHHRNQCQYCRLKKCLKVIMRREAVQRG [G68I]: -0.494 ± 0.1; HIECVVCGDKSSGKHYGQFTCEGCKSFFKRSVRRNLTYTCRANRNCPIDQHHRNQCQYCRLKKCLKVKMRREAVQRG [G68K]: -0.747 ± 0.099. As for HIECVVCGDKSSGKHYGQFTCEGCKSFFKRSVRRNLTYTCRANRNCPIDQHHRNQCQYCRLKKCLKVCMRREAVQRG [G68C], the abundance fitness was -0.597 ± 0.094. For the variant HIECVVCGDKSSGKHYGQFTCEGCKSFFKRSVRRNLTYTCRANRNCPIDQHHRNQCQYCRLKKCLKVFMRREAVQRG [G68F], the abundance fitness is -0.609 ± 0.12.

Regarding HIECVVCGDKSSGKHYGQFTCEGCKSFFKRSVRRNLTYTCRANRNCPIDQHHRNQCQYCRLKKCLKVHMRREAVQRG [G68H], the abundance fitness is -0.775 ± 0.18. HIECVVCGDKSSGKHYGQFTCEGCKSFFKRSVRRNLTYTCRANRNCPIDQHHRNQCQYCRLKKCLKVPMRREAVQRG [G68P]: the abundance fitness was -0.939 ± 0.15.

Regarding HIECVVCGDKSSGKHYGQFTCEGCKSFFKRSVRRNLTYTCRANRNCPIDQHHRNQCQYCRLKKCLKVMMRREAVQRG [G68M], the abundance fitness is -0.624 ± 0.084. Turning to HIECVVCGDKSSGKHYGQFTCEGCKSFFKRSVRRNLTYTCRANRNCPIDQHHRNQCQYCRLKKCLKVDMRREAVQRG [G68D], the abundance fitness is -0.728 ± 0.11. Take HIECVVCGDKSSGKHYGQFTCEGCKSFFKRSVRRNLTYTCRANRNCPIDQHHRNQCQYCRLKKCLKVQMRREAVQRG [G68Q]: the abundance fitness was -0.731 ± 0.1.

As to HIECVVCGDKSSGKHYGQFTCEGCKSFFKRSVRRNLTYTCRANRNCPIDQHHRNQCQYCRLKKCLKVLMRREAVQRG [G68L], the abundance fitness is -0.572 ± 0.064.

For HIECVVCGDKSSGKHYGQFTCEGCKSFFKRSVRRNLTYTCRANRNCPIDQHHRNQCQYCRLKKCLKVNMRREAVQRG [G68N], the abundance fitness was -0.211 ± 0.085. Regarding HIECVVCGDKSSGKHYGQFTCEGCKSFFKRSVRRNLTYTCRANRNCPIDQHHRNQCQYCRLKKCLKVEMRREAVQRG [G68E], the abundance fitness was -0.524 ± 0.06. Consider HIECVVCGDKSSGKHYGQFTCEGCKSFFKRSVRRNLTYTCRANRNCPIDQHHRNQCQYCRLKKCLKVYMRREAVQRG [G68Y], for which the abundance fitness is -0.436 ± 0.12. Next, HIECVVCGDKSSGKHYGQFTCEGCKSFFKRSVRRNLTYTCRANRNCPIDQHHRNQCQYCRLKKCLKVTMRREAVQRG [G68T]: -0.677 ± 0.075; HIECVVCGDKSSGKHYGQFTCEGCKSFFKRSVRRNLTYTCRANRNCPIDQHHRNQCQYCRLKKCLKVWMRREAVQRG [G68W]: -0.666 ± 0.085; HIECVVCGDKSSGKHYGQFTCEGCKSFFKRSVRRNLTYTCRANRNCPIDQHHRNQCQYCRLKKCLKVGLRREAVQRG [M69L]: -0.027 ± 0.035. Then HIECVVCGDKSSGKHYGQFTCEGCKSFFKRSVRRNLTYTCRANRNCPIDQHHRNQCQYCRLKKCLKVGGRREAVQRG [M69G], with -0.711 ± 0.053. With HIECVVCGDKSSGKHYGQFTCEGCKSFFKRSVRRNLTYTCRANRNCPIDQHHRNQCQYCRLKKCLKVGQRREAVQRG [M69Q], the abundance fitness was -0.831 ± 0.11. For the variant HIECVVCGDKSSGKHYGQFTCEGCKSFFKRSVRRNLTYTCRANRNCPIDQHHRNQCQYCRLKKCLKVGPRREAVQRG [M69P], the abundance fitness is -0.661 ± 0.097. Take HIECVVCGDKSSGKHYGQFTCEGCKSFFKRSVRRNLTYTCRANRNCPIDQHHRNQCQYCRLKKCLKVGDRREAVQRG [M69D]: the abundance fitness was -1.06 ± 0.22. HIECVVCGDKSSGKHYGQFTCEGCKSFFKRSVRRNLTYTCRANRNCPIDQHHRNQCQYCRLKKCLKVGNRREAVQRG [M69N]: the abundance fitness is -0.864 ± 0.19.

HIECVVCGDKSSGKHYGQFTCEGCKSFFKRSVRRNLTYTCRANRNCPIDQHHRNQCQYCRLKKCLKVGARREAVQRG [M69A]: the abundance fitness was -0.943 ± 0.094.

Consider HIECVVCGDKSSGKHYGQFTCEGCKSFFKRSVRRNLTYTCRANRNCPIDQHHRNQCQYCRLKKCLKVGCRREAVQRG [M69C], for which the abundance fitness is -0.38 ± 0.11. Turning to HIECVVCGDKSSGKHYGQFTCEGCKSFFKRSVRRNLTYTCRANRNCPIDQHHRNQCQYCRLKKCLKVGERREAVQRG [M69E], the abundance fitness is -0.723 ± 0.083. As for HIECVVCGDKSSGKHYGQFTCEGCKSFFKRSVRRNLTYTCRANRNCPIDQHHRNQCQYCRLKKCLKVGIRREAVQRG [M69I], the abundance fitness was -0.484 ± 0.099. Take HIECVVCGDKSSGKHYGQFTCEGCKSFFKRSVRRNLTYTCRANRNCPIDQHHRNQCQYCRLKKCLKVGHRREAVQRG [M69H]: the abundance fitness is -1.08 ± 0.26. As for HIECVVCGDKSSGKHYGQFTCEGCKSFFKRSVRRNLTYTCRANRNCPIDQHHRNQCQYCRLKKCLKSGMRREAVQRG [V67S], the abundance fitness was -0.117 ± 0.045. Next, HIECVVCGDKSSGKHYGQFTCEGCKSFFKRSVRRNLTYTCRANRNCPIDQHHRNQCQYCRLKKCLKRGMRREAVQRG [V67R]: -0.16 ± 0.037; HIECVVCGDKSSGKHYGQFTCEGCKSFFKRSVRRNLTYTCRANRNCPIDQHHRNQCQYCRLKKCLKQGMRREAVQRG [V67Q]: 0.036 ± 0.046; HIECVVCGDKSSGKHYGQFTCEGCKSFFKRSVRRNLTYTCRANRNCPIDQHHRNQCQYCRLKKCLKWGMRREAVQRG [V67W]: -0.325 ± 0.053. As to HIECVVCGDKSSGKHYGQFTCEGCKSFFKRSVRRNLTYTCRANRNCPIDQHHRNQCQYCRLKKCLKYGMRREAVQRG [V67Y], the abundance fitness was -0.18 ± 0.093. Then HIECVVCGDKSSGKHYGQFTCEGCKSFFKRSVRRNLTYTCRANRNCPIDQHHRNQCQYCRLKKCLKPGMRREAVQRG [V67P], with -0.953 ± 0.14.

Source of the values: the Human Domainome abundance scans (Beltran et al. 2025).
